Measurements from article PMC3085348 (European journal of immunology, 2011).
Each block holds one binder with its values, some of them ahead of it.

Experiments:
[1] = target: RTL342m (α1β1 domains of DR2 linked to mouse MOG-35-55 peptide) (human HLA-DR2 (DRA*01:01/DRB1*15:01) …, UniProt Q61885;IMGT); assay: ELISA
[2] = target: T1, RTL340 (DR2/MBP-85-99), biotinylated version (human, DRA*01:01/DRB1*15:01, biotin on the Bir-A tag); assay: ELISA
T1 chain 1: ENPVVHFFKNIVTPR
T1 chain 2: not shown
T1 chain 3: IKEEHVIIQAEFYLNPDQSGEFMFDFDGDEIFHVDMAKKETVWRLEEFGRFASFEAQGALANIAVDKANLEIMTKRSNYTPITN

B1: Fab 3A3 (Fab, V domains shown)
VH: QVQLQESGGGLVKPGGSLRLSCAASGFTFSSYSMNWVRQAPGKGLEWVSSISSSSSYIYYADSVKGRFTISRDNAKNSLYLQMNSLRAEDTAVYYCARVRGHRYYYDSSGYYSSDYYYYYGMDVWGQGTTVTVSS
VL: DIQLTQSPSSVSASVGDRVTITCRASQVISSWLAWYQQKPGKAPKLLISTASSLQSGVPPRFSGSGSGTDFTLTITSLQPEDFATYYCQQANSFPLTFGQGTKVEIK
- fold reduction in ELISA binding to RTL342m compared to RTL1000 [1]: 5 fold

B2: Fab 1F11 (Fab, V domains shown)
VH: QLQLQESGPGLVKPSETLSLTCTVSGVSISSRSGHWGWVRQPPGKGLEWIGSISYSGSTYYNPSLKSRVTISVDTSKNQLSLKLSSVTAADTAVYYCARESHPAAALVGWGQGTLVTVSS
VL: ETTLTQSPGTLSLSPGERATLSCRASQSIINSHLAWYQQKPGQAPRLLIYGASSRATGIPDRFSGGGSGTDFTLTITRLETEDFALYFCQQYGTSPLTFGGGTRVETK
- fold reduction in ELISA binding to RTL342m compared to RTL1000 [1]: 5 fold

The remaining lines, values ahead:

- binding result [2]: no binding
B3: Fab 2C3 (Fab, V domains shown)
VH: QVQLVQSGGGVVQPGRSLRLSCAASGFTFSSYAMHWVRQAPGKGLEWVAVISYDGSNKYYADSVKGRFTISRDNSKNTLYLQMNSLRAEDTAVYYCARDRSFWSGYYIINYYYYGMDVWGQGTTVTVSS
VL: DVVMTQSPLSLPVTPGEPASISCRSSQSLLHSDGNNYLDWYLQKPGQSPQLLIYLGSNRASGVPDRFSGSGSGTDFTLKISRVEPEDVGVYYCMQALHIPLTFGQGTRLEIK

- fold reduction in ELISA binding to RTL342m compared to RTL1000 [1]: 2 fold
B4: Fab 2E4 (Fab, V domains shown)
VH: EVQLVESGAEVKKPGASVKVSCKASGYTFTSYYMHWVRQAPGQGLEWMGIINPSGGSTSYAQKFQGRVTMTRDTSTSTVYMELSSLRSEDTAVYYCAREGDNYYGDAFDIWGQGTMVTVSS
VL: EIVLTQSPATLSLSPGERATLSCRASQSVSSYLAWYQQKPGQAPRLLIYDASNRATGIPARFSGSGSGTDFTLTISSLEPEDFAVYYCQQRSNWPPSYTFGQGTKLEIK
